{"source": "the DeepSol protein solubility set", "data": [{"experiment": "soluble on expression in E. coli; label from the status in PepcDB or PDB records", "values": [{"sequence": "MASAEVVSKLEAAFAKLQNASDCHSLLKKYLTKEVFDQLKGKQTKMGATLMDVIQSGVENLDSGIGVYAPDAESYTLFAALLDPIIEDYHKGFKPSDKQPPKDSGDLNTFIDVDPDKKYVISTRVRCGRSLEGYPFNPCLKKQQYEEMESRVKGQLESMSGELRGKYYPLTGMTKETQKQLIDDHFLFKEGDRFLQAAHACKFWPTGRGIYHNDAKTFLVWVNEEDHLRIISMQKGGNLKEVFGRLVTAVGVIEEKVKFSRDDRLGFLTFCPTNLGTTIRASVHIKLPKLGADRKKLEEVAAKYNLQVRGTAGEHSDSPDGVYDISNKRRLGLSEYEAVKEMQDGILELIKAEESAR", "soluble on expression in E. coli": "soluble"}, {"sequence": "MASAVQAQHNVSDVSRMNVLFLMADDMRPELGCYGVEAVKTPNMDRLASSGVLFQNAYCNVPVSGASRASLLTGVYPHYPDRFVNFSAYASKDCPEAIPLSGWFTKNGYHTVSDGKVFHHMSDHAASWSEPPYRNHPDGYDVYWAEYNKWELWMNSESGKTINPKTMRGPFCESADVPDTAYDDGKLAERAIRDLRRMKEMNKPFFLACGFWKPHLPFNAPKKYWDLYKREEIPLASNRFRPEGLPEQVRNSSEIYAYARVTDTGDADFQREVKHGYYACLSYVDAQIGKVLDALDELGLAENTIVVLLGDHGWNLGEHDFVGKHNLMDRSTHVPLIIRVPGMKKGKTRSMVEFVDLYPTLCELCQIPQPAEQLDGQSFAKVFSNLKAKTKDEVYIQWEGGDNAVDQRFSYAEWMKGDVKKASMLFDHRIDKEENKNRVNEKKYKSKVESLSSFIKVKKSSLKKLEHHHHHH", "soluble on expression in E. coli": "not soluble"}, {"sequence": "MASEGGNSNGGTSGTGTKSEQDPKEGKRFFNFVFNVNKKITDETEMTQDFMNDLKHYQEFDETVTKCAGYLENVFIPYSSKGSKPEEEAFTRLATALGDFKSFVPQAYTAIFENFSTKMKAAGVSRKCHQALQAHDLRHMKKFHTESYEAFVEQRKKFDESRKKMDQAKADVRDAKTTTAIEKKAICYQLTVDDFDQKTEELIKIIEALPKVKQEYVRDIYLILSKHKQFHADMSKFFAASCVL", "soluble on expression in E. coli": "not soluble"}, {"sequence": "MASGTASTKIVIAGGFGSGKTTFVGAVSEIMPLRTEAMVTDASAGVDMLEATPDKRSTTVAMDFGRITLGEDLVLYLFGTPGQRRFWFMWDDLVRGAIGAIVLVDCRRLQDSFAAVDFFEHRNLPFLIAINEFDSAPRYPVSAVRDALTLPAHIPVINVDARNRRSATDALIAVSEYALATLSPLEHHHHHH", "soluble on expression in E. coli": "not soluble"}, {"sequence": "MASISSLGVGSGLDLSSILDSLTAAQKATLTPISNQQSSFTAKLSAYGTLKSALTTFQTANTALSKADLFSATSTTSSTTAFSATTAGNAIAGKYTISVTHLAQAQTLTTRTTRDDTKTAIATSDSKLTIQQGGDKDPISIDISAANSSLSGIRDAINNAKAGVSASIINVGNGEYRLSVTSNDTGLDNAMTLSVSGDDALQSFMGYDASASSNGMEVSVAAQNAQLTVNNVAIENSSNTISDALENITLNLNDVTTGNQTLTITQDTSKAQTAIKDWVNAYNSLIDTFSSLTKYTAVDAGADSQNSSNGALLGDSTLRTIQTQLKSMLSNTVSSSNYKTLAQIGITTDPSDGKLELDADKLTAALKKDASGVGALIVGDGKKTGITTTIGSNLTSWLSTTGIIKAATDGVSKTLNKLTKDYNAASDRIDAQVARYKEQFTQLDVLMTSLNSTSSYLTQQFENNSNSK", "soluble on expression in E. coli": "not soluble"}, {"sequence": "MASKITQPDKYSGFLNNYSDLKETTSATGKPVLRWVDPSFDQSKYDSIVWNPITYYPVPKPSTQVGQKVLDKILNYTNTEMKEAIAQRKPLVTTAGPRSLIFRGAITGVDTSKEGLQFYEVVPVALVVAGTQMATGHRTMDTRLYFEGELIDAATNKPVIKVVRQGEGKDLNNESTPMAFENIKQVIDDMATDATMFDVNKKLEHHHHHH", "soluble on expression in E. coli": "soluble"}, {"sequence": "MASKKASGTLPPQQQVVHKVIMVGTGGVGKSALTLQFMYDEFVEEYEPTKADSYRKKVVLDGEECSIDILDTAGQEDYSAIRDNYYRSGEGFICVFSILDMESFEATNEFREQILRVKNSDSSVPIVLVGNKGDMRDQRVVSAELCRQRAEQWGCHYVETSAKRRENVDKVFYDLMREMKRRKGGSQAQTGIDASASSGRKKRSGIKKHCTIL", "soluble on expression in E. coli": "not soluble"}, {"sequence": "MASKMDTETHYSDVWVVIPAFNEAAVIGKVVTDVRSVFDHVVCVDDGSTDGTGDIARRSGAHLVRHPINLGQGAAIQTGIEYARKQPGAQVFATFDGDGQHRVKDVAAMVDRLGAGDVDVVIGTRFGRPVGKASASRPPLMKRIVLQTGARLSRRGRRLGLTDTNNGLRVFNKTVADGLNITMSGMSHATEFIMLIAENHWRVAEEPVEVLYTEYSKSKGQPLLNGVNIIFDGFLRGRMPR", "soluble on expression in E. coli": "not soluble"}, {"sequence": "MASMTGGQQMGRGSPNMLRKRQMTVLDLHPGSGKTRKILPQIIKDAIQQRLRTAVLAPTRVVAAEMAEALRGLPVRYQTSAVQREHQGNEIVDVMCHATLTHRLMSPNRVPNYNLFVMDEAHFTDPASIAARGYIATKVELGEAAAIFMTATPPGTTDPFPDSNAPIHDLQDEIPDRAWSSGYEWITEYAGKTVWFVASVKMGNEIAMCLQRAGKKVIQLNRKSYDTEYPKCKNGDWDFVITTDISEMGANFGASRVIDCRKSVKPTILEEGEGRVILGNPSPITSASAAQRRGRVGRNPNQVGDEYHYGGATSEDDSNLAHWTEAKIMLDNIHMPNGLVAQLYGPEREKAFTMDGEYRLRGEEKKNFLELLRTADLPVWLAYKVASNGIQYTDRKWCFDGPRTNAILEDNIEVEIVTRMGERKILKPRWLDARVYADHQALKWFKDFAAGKRHHHHHH", "soluble on expression in E. coli": "soluble"}, {"sequence": "MASPRANDAPIVLLHGFTGWGREEMLGFKYWGGVRGDIEQWLNDNGYRTYTLAVGPLSSNWDRACEAYAQLVGGTVDYGAAHAAKHGHARFGRTYPGLLPELKRGGRVHIIAHSQGGQTARMLVSLLENGSQEEREYAKAHNVSLSPLFEGGHHFVLSVTTIATPHDGTTLVNMVDFTDRFFDLQKAVLKAAAVASNVPYTSQVYDFKLDQWGLRRQPGESFDHYFERLKRSPVWTSTDTARYDLSIPGAEKLNQWVQASPNTYYLSFSTERTHRGALTGNYYPELGMNAFSAVVCAPFLGSYRNEALGIDDRWLENDGIVNTVSMNGPKRGSSDRIVPYDGTLKKGVWNDMGTYNVDHLEVIGVDPNPSFDIRAFYLRLAEQLASLRP", "soluble on expression in E. coli": "soluble"}, {"sequence": "MASQTNQTVVDTKKIETENPPKPQVPASSCRKRVKDDNATFFANLKDHMDEFIHASMDEHKTCFKNTMDKIFGSFSKAEAVAEKQIEAKEVVEIHSPLQTAVTK", "soluble on expression in E. coli": "soluble"}, {"sequence": "MASRLLRGVGALAAQALRAHGPRGAAVTRSMASGGGVPTDEEQATGLEREIMIAAQKGLDPYNMLPPKAASGTKEDPNLVPSISNKRIVGCICEEDNCTVIWFWLHKGESQRCPNCGTHYKLVPHQMAH", "soluble on expression in E. coli": "soluble"}, {"sequence": "MASRVNIVQVQILDNPAMFVDKFKMEITFEVFEHLPHDLEWELVYVGSGTSRDFDQVLDSALVGPIPEGRHKFVFDAEHPDISKIPVEDIVGVSVLLLRCKYNDQEFINMGWFVANEYTDEELKENPPAKPLIEKLSRKIETEDLRVTTFPIRWTDEDPVAEPVDEEANKVFDEDDLMPLHDDGQDDDEEEEDDDETGPNTEEVDLNESFNERMANAHDGTEQKNGEESMEHDGASGDVEMGDKH", "soluble on expression in E. coli": "soluble"}, {"sequence": "MASSEGLASVDPWSFRQNFNIDSWLLSDSFSHDSDILAKALHRSISTSTESSPLSPSSFFDSSTAAVDFSPPQTLSNVSFGSDPEIPAASALGLGKRKRGPGVSGGKQTKRRSRVSNKKSQTTFITADAANFRQMVQQVTGAKFLGSSNSIFAPIVKPEPHRLASRLPPSCGNLDRSSAVPTLDTSSFLSNHHQENIITDLGAPTGSFHHQSSAGTTTANVGGGSSAVELDSYPSFPTLESWKVM", "soluble on expression in E. coli": "not soluble"}, {"sequence": "MASSFDNQMDQDGMCSVYSAQPSETNCSINEVLAKEIIAVNETPDDQADSSIYPIPKSETNVSASEGFQPCQDINQFNLSVYSAPKSETPVTMNEKFERCKDLMNVLDYSVYSMPPSEANVTMNVASFSEYTALASETNVTMADVLKNVAQDLASEHTAKSAHPTFDTTAYVERLQAELGIPDSKVIGLECSNFSNAKIIDSIECLHQLDKFQPIPVDFDQNPDFGKTAKSVESYLLRSSNASSIHHEI", "soluble on expression in E. coli": "not soluble"}, {"sequence": "MASSKNYLEFVLEQLSGLDDVTYRSMMGEYILYFRGKIIGGIYDDRFLVKPVQAVLDKIDQSSFEFPYKGAKEMI", "soluble on expression in E. coli": "not soluble"}, {"sequence": "MASVTFSVPKGFTEFSGLRSSSASLPFGKKLSSDEFVSIVSFQTSAMGSSGGYRKGVTEAKLKVAINGFGRIGRNFLRCWHGRKDSPLDIIAINDTGGVKQASHLLKYDSTLGIFDADVKPSGETAISVDGKIIQVVSNRNPSLLPWKELGIDIVIEGTGVFVDREGAGKHIEAGAKKVIITAPGKGDIPTYVVGVNADAYSHDEPIISNASCTTNCLAPFVKVLDQKFGIIKGTMTTTHSYTGDQRLLDASHRDLRRARAAALNIVPTSTGAAKAVALVLPNLKGKLNGIALRVPTPNVSVVDLVVQVSKKTFAEEVNAAFRDSAEKELKGILDVCDEPLVSVDFRCSDFSTTIDSSLTMVMGDDMVKVIAWYDNEWGYSQRVVDLADIVANNWK", "soluble on expression in E. coli": "soluble"}, {"sequence": "MASYDKISDGWYRVCPKRSSNRALITVKLPFSTLFRLKPMTDITPFANRLGKNIKHLMKWAKRNGIEAWRIYDRDIPQFPFAADVYGDRIHLQEYDTGWLMRPEEYEAWLAEVLEAVAFVTGFAPEQIRLKRRERQKGLQQYEKTGKAGDDFVITENGRKFWVNLDKYLDTGLFLDHRNTRKKVGETAAGKRFLNLFSYTGSFTVYAATGGAASSETVDLSNTYLDWAKRNFELNGIDTERHKIVRADVFQYLQTAYGEGRRFDLIVMDPPSFSNSKKMSDILDIQRDHKKLIDGAVKLLASDGILYFSNNLRSFVLDDLVSEQYAVKDISKQSVPEDFRNKKIHRCWEIRHKS", "soluble on expression in E. coli": "not soluble"}, {"sequence": "MATGDGKSVMVVGVDDSEQSTYALEWTLDRFFAPYAPNYPFKLFIVHAKPNAVSAVGLAGPGTAEVVPYVDADLKHTAAKVVEKAKAICQSRSVHGAVIEVFEGDARNILCEVVDKHHASILVVGSHGYGAIKRAVLGSTSDYCAHHAHCSVMIVKKPKIKV", "soluble on expression in E. coli": "soluble"}, {"sequence": "MATGKGEYHMGNTMTKAIYDKFKVATPYGNKVATGAIPAEAVNIAVKVGGFKVGDQNYPINPKITFTNNTGIDIPGGTEFQFDIPVSAPDNAKDQSGGGLKVIASGHTRANNIGGLDGTMHRVAFSLPAWKSLPAGATYELDMVYYLPISGPANYTVKINNVEYAFSFEQPDLPVADLTALEHHHHHH", "soluble on expression in E. coli": "soluble"}, {"sequence": "MATIKDVARLAGVSVATVSRVINNSPKASEASRLAVHSAMESLSYHPNANARALAQQTTETVGLVVGDVSDPFFGAMVKAVEQVAYHTGNFLLIGNGYHNEQKERQAIEQLIRHRCAALVVHAKMIPDADLASLMKQMPGMVLINRILPGFENRCIALDDRYGAWLATRHLIQQGHTRIGYLCSNHSISDAEDRLQGYYDALAESGIAANDRLVTFGEPDESGGEQAMTELLGRGRNFTAVACYNDSMAAGAMGVLNDNGIDVPGEISLIGFDDVLVSRYVRPRLTTVRYPIVTMATQAAELALALADNRPLPEITNVFSPTLVRRHSVSTPSLEASHHATSD", "soluble on expression in E. coli": "soluble"}, {"sequence": "MATIKIKFRTSSVKTKEGVLFYQIIHARVTRQINTGYKIFPSEWDKHLACIILPDNNDIRRRFLAQLTSRIAEDMHRLKNIISKLEHSGNPFTSGKIIELFRIPPINKYSFLSFAQDLIIQLKQIGKERTAESYASAYNSFKRFMDNNGDVLLEDVNSNLMIKYEIYLKNCGVCPNSCSYYMRNLRAIYNRAVEKELTQQQYPFKYVYTGIDKTVKRAVSLKTIRQIQNLDLSTNPLMDYARDIFMFSFYTRGMSFIDMAYLKKKDLQNGVLSYRRHKTDQQLFIKWEKPMQKIVDKYNTIESSYLLPIIKNNGKDPRREYKNASHLINRKLKVIGQMLEIPVTLTTYVARHAWANIAKSKNISISVISEAMGHDSENTTRIYLASLDASIVDKANSIILKSL", "soluble on expression in E. coli": "not soluble"}]}]}
